The target of series [1] is T1, PUF60 WT (human, UniProt Q9UHX1 1-559). Nature of the series: EMSA; strong binding; 0.14-1.25 uM protein, 15 nM RNA; EMSA: 40 mM Tris pH 8.0, 5 mM MgCl2, 0.25 ug/uL heparin, 0.01% Triton, 1 mM DTT, room temperature 20 min; 6% native PAGE in 0.5x TBE at 4 C; 15-17 nM biotin-RNA. The settings on record: protein: recombinant; tags: 2xHis-lipoyl-TEV, removed by TEV; label: 5' biotin; single strand.

Series [2] addresses T1, PUF60 WT. Nature of the series: EMSA; Kd only in figure; Hill 3.0; similar affinity to can probe; EMSA: 40 mM Tris pH 8.0, 5 mM MgCl2, 0.25 ug/uL heparin, 0.01% Triton, 1 mM DTT, room temperature 20 min; 6% native PAGE in 0.5x TBE at 4 C; 15-17 nM biotin-RNA. The settings on record: protein: recombinant; tags: 2xHis-lipoyl-TEV, removed by TEV; label: 5' biotin; single strand.

The target in series [3] is T2, U2AF65 WT (human, UniProt P26368 1-475). Nature of the series: EMSA; Kd shown only in figure; 0.13-4.2 uM protein; similar affinity to can probe; EMSA: 40 mM Tris pH 8.0, 5 mM MgCl2, 0.25 ug/uL heparin, 0.01% Triton, 1 mM DTT, room temperature 20 min; 6% native PAGE in 0.5x TBE at 4 C; 15-17 nM biotin-RNA. Particulars: protein: recombinant; tags: N-terminal GST (pGEX6P, eluted with glutathione); label: 5' biotin; single strand. Background: Mobility shift assays separate free from complexed probe on a gel.
T2 sequence (P26368 whole entry, one chain of several): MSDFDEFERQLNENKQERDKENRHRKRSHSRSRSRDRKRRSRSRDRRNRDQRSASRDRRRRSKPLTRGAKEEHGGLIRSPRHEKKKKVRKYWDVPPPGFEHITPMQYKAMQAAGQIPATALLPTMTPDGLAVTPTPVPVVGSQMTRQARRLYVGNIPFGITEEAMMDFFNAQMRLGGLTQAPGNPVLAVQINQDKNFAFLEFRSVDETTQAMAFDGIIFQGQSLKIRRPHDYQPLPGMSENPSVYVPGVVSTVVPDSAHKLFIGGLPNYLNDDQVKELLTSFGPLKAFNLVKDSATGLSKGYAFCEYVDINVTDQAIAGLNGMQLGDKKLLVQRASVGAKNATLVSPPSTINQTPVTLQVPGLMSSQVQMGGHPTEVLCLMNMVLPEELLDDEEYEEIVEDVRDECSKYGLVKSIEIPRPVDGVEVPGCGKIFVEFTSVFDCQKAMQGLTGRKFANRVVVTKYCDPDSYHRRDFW

Series [4] concerns the target T1, PUF60 WT. Description: EMSA; Kd only in figure; Hill 2.6; similar affinity to cr probe; EMSA: 40 mM Tris pH 8.0, 5 mM MgCl2, 0.25 ug/uL heparin, 0.01% Triton, 1 mM DTT, room temperature 20 min; 6% native PAGE in 0.5x TBE at 4 C; 15-17 nM biotin-RNA. The settings on record: protein: recombinant; tags: 2xHis-lipoyl-TEV, removed by TEV; label: 5' biotin; single strand.

Series [5] has as its target T2, U2AF65 WT. Nature of the series: EMSA; Kd shown only in figure; 0.13-4.2 uM protein; similar affinity to cr probe; EMSA: 40 mM Tris pH 8.0, 5 mM MgCl2, 0.25 ug/uL heparin, 0.01% Triton, 1 mM DTT, room temperature 20 min; 6% native PAGE in 0.5x TBE at 4 C; 15-17 nM biotin-RNA. Particulars: protein: recombinant; tags: N-terminal GST (pGEX6P, eluted with glutathione); label: 5' biotin; single strand.

T1 sequence (Q9UHX1 whole entry): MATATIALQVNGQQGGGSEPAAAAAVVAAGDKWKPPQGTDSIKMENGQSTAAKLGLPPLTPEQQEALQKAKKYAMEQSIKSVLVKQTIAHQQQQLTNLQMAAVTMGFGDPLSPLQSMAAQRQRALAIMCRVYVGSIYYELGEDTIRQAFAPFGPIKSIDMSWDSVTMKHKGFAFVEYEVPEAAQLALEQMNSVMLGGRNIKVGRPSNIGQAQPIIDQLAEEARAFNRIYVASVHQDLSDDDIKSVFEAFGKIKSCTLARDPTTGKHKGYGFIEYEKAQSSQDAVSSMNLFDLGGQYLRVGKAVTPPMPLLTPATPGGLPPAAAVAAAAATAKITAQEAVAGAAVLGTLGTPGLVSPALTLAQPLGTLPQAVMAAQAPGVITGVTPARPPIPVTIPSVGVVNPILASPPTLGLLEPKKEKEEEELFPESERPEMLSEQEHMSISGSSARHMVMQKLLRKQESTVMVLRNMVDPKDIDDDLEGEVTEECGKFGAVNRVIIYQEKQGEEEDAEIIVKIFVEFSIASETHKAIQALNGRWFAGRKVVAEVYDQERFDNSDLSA

B1: AdML (ssRNA)
RNA: UUCGUGCUGACCUGUCCCUUUUUUUUCCACAGC
Consider B1, for which, in the series with PUF60 WT [1], the binding result is “binds”.

B2: UBE2F-cr3'ss-32 (ssRNA)
RNA: CUUUUUGUUUCCUUUUUUUUUUAAUUUAAAGG
For the molecule B2, the binding result with PUF60 WT [2] and with U2AF65 WT [3] was “binds” each time.

B3: UBE2F-can3'ss-32 (ssRNA)
RNA: UUUUUUUGUUUUGUUUUGUGUUUUUUGAUAGA
For the molecule B3, the binding result with PUF60 WT [4] and with U2AF65 WT [5] was “binds” each time.

(Values after PMC7408900, “Cancer-Associated Substitutions in RNA Recognition Motifs of PUF60 and U2AF65 Reveal Residues Required for Correct Folding and 3′ Splice-Site Selection”.)
